{"source": "a protein production outcome set (Wang et al. 2014)", "experiment": "label from the status in PepcDB records", "data": [{"sequence": "MDELHPGYLVGLLVLLVACSAFFSCVETALLNLDRYRLRLQAKQGLRGARRSSWLLLHDDRLRGTLLFGRTLVNVSAAALASWAALRHWGVIGLAVAIPGMTLLLLLFGALLPRRYGALRSERVALPLSLPLLILQRLCWPLLWLLTLLSNALLRLLGVAAAEQDDSGRSRDEEALHPADNPQASEVNRHDMLLGLLDLEKVTVNDLMIPRNEIEGIDLDDELEVIVEQLRTTSHTRLPVYRDDVNQIEGVVHMRQIARLLTQGRLTKENLRQACMEPYFVPESTPLSTQLVNFQKEKRRIGVVVDEYGEVIGIVTLEDILEEIVGDFNDLDSLDNPDIQAQEDGSFVIDGSANLRELNKSLGWQLPCDGPKTLNGLVTEALEQIPDCAVCLRIGPYCLEIQQSAENRVKSVRAWHPRALTPLVESDASV", "values": [{"measurement": "protein production", "value": "failed"}]}, {"sequence": "RSLQLDKLVNEMTQHYENSVPEDLTVHVGDIVAAPLPTNGSWYRARVLGTLENGNLDLYFVDFGDNGDCPLKDLRALRSDFLSLPFQAIECSLARIA", "values": [{"measurement": "protein production", "value": "not failed"}]}, {"sequence": "MSTTTRISTAERLGRALGRGWRAYARSERRASNWLVSKGVPLAAAAALLWAGKLAVLGLLLYVAFWLALLLVALVFVARGHDTVEWEPPEPEWRHGHAGFGLYTHDEYRIDSHDPSDET", "values": [{"measurement": "protein production", "value": "failed"}]}, {"sequence": "MFSFLEKNPFFFTLAFIFVFAIAGLVEILPNFFKSARPIEGLRPYTVLETAGRQIYIQEGCYHCHSQLIRPFQAEVDRYGAYSLSGEYAYDRPFLWGSKRIGPDLHRVGDYRTTDWHEKHMFDPKSVVPHSIMPAYKHLFTKKSDFDTAYAEALTQKKVFGVPYDTENGVKLGSVEEAKKAYLEEAKKITADMKDKRVLEAIERGEVLEIVALIAYLNSLGNSRINANQNAK", "values": [{"measurement": "protein production", "value": "failed"}]}, {"sequence": "MNKQVIVRSACLALFVGLAGGCATGPGGGSIYVPVGSDDRRSAPEPPRTNIPDEQDEQVWRKSEQPTVTEPDSPSTRAPSYSESGDQLPAAALTLVRDADQRLRQGDSAGAIARLERAQRIAPRSSEVYFKLAEAYVAGDNLGAAEQFTLKGLSLAGNDERMQRSGWLLLADIRRARGNVAGADQAEARAAAL", "values": [{"measurement": "protein production", "value": "failed"}]}, {"sequence": "MTTKNMNTPPGSTQENEIDLLRLVGELWDHRKFIISVTALFTLIAVAYSLLSTPIYQADTLVQVEQKQGNAILSGLSDMIPNSSPESAPEIQLLQSRMILGKTIAELNLRDIVEQKYFPIVGRGWARLTKEKPGELAISWMHIPQLNGQDQQLTLTVGENGHYTLEGEEFTVNGMVGQRLEKDGVALTIADIKAKPGTQFVLSQRTELEAINALQETFTVSERSKESGMLELTMTGDDPQLITRILNSIANNYLQQNIARQAAQDSQSLEFLQRQLPEVRSELDQAEEKLNVYRQQRDSVDLNLEAKAVLEQIVNVDNQLNELTFREAEISQLYKKDHPTYRALLEKRQTLEQERKRLNKRVSAMPSTQQEVLRLSRDVEAGRAVYLQLLNRQQELSISKSSAIGNVRIIDPAVTQPQPVKPKKALNVVLGFILGLFISVGAVLARAMLRRGVEAPEQLEEHGISVYATIPMSEWLDKRTRLRKKNLFSNQQRHRTKNIPFLAVDNPADSAVEAVRALRTSLHFAMMETENNILMITGATPDSGKTFVSSTLAAVIAQSDQKVLFIDADLRRGYSHNLFTVSNEHGLSEYLAGKDELNKVIQHFGKGGFDVITRGQVPPNPSELLMRDRMRQLLEWANDHYDLVIVDTPPMLAVSDAAVVGRSVGTSLLVARFGLNTAKEVSLSMQRLEQAGVNIKGAILNGVIKRASTAYSYGYNYYGYSYSEKE", "values": [{"measurement": "protein production", "value": "failed"}]}, {"sequence": "MRGLAVLVLLVFAVQVAAAEDFRPVVFVHGLAGSAGQFESQGMRFAANGYPAEYVKTFEYDTISWALVVETDMLFSGLGSEFGLNISQIIDPETLDKILSKSRERLIDETFSRLDRVIDEALAESGADKVDLVGHSMGTFFLVRYVNSSPERAAKVAHLILLDGVWGVDAPEGIPTLAVFGNPKALPALGLPEEKVVYNATNVYFNNMTHVQLCTSPETFAVMFEFINGYKPATTDIVPQDGDYVKVKGKFLAFATNGDVSGWLSIYPIDENGKRLTRLPVKFMRVKGDFEVRLRKGQLYEFQFRKDFSPIIYHYYRAPFVRDDLWARFLVSKPPLDVELLILPERLSPAAKETSGLLLIRYKEMIGEYDEEIGGVDEVYVNGVNVCTERICPIERAVNGLWVFDRGADGKSDLDREVVRYSIMPFMSAADLVVPAEGTISIAVKSRTGGEESFTIPAWSADRHSIIVQFSDYI", "values": [{"measurement": "protein production", "value": "failed"}]}, {"sequence": "MKSLETMARYKKELTECARNLKLPFLAEHLDEILHEAQEKQQTYSEFLSTCLMRELRDKERRSYLTRLKFAGLPARYDLDLYDFSRTEGIDQRQMRELRELVWIRRTYNLLLVGDSGTGKTFIASGLIHEAVKAGYKAYLLTLEELFVCLKTKEISRPAMKTYKRIMKAQLLAIDDVTLFPLKGEDVLLLFKLVNCVQGKTSLIITASRDLTGWLEMAGDEVCAAALLDRLLYCCEIIRLSGKSYRMENRKTIFSNQQIGTASLEHHHHHH", "values": [{"measurement": "protein production", "value": "failed"}]}, {"sequence": "MTAAQDGRIITFYSYKGGTGRTMALANTAWILAANGKRVLAVDWDLEAPGLDRFFRPFLDPHALAATSGIIDIINEYAWAATSGSQRSGAWHQEYAHVEQHAVSLTPERHGLRFAKGGSLDFLSAGRQDRSYSATVSSFEWDNFYERLGGGLFLDALRDDMKASYEYVLIDSRTGLSDNADICTIQMPDMLVDCFTLSDQSLDGAAAVARSVEDGYRKRKIRVLPVPMRIDEGEKEKVDAGRALARLKFDGLPKGLGGEDLSPEELSQYWGAVEIPYRPYYAYEETLATVGDESGIANSLLSAFERLTNVISDGEVASLPPVPEPVRLRCLDAFTRRRPLTTAADVVVAYAAENRMWADWIEAVLKHSGCNVTLYDVSAGPVERPDAATRALVLLSNAFQKSRYGEDVWRAFTGGDPDGAHPALVPLRVDEVRLPDSYLAHEPVDLHRLEEAQCVAGLLSALELPAQPTDGAPAAPRFPGSTPATWNAPQRNQTFTGRNVILTQVREQLRSGMSVVLPQPQALTGLGGVGKTQVALEYVHRFMADYDLVWWTSAESVDNVVASLAELGARIGAPGGEDMALVSRETVQMLARGVPTKRWILIFDNADNPEQLTRYFPAGGGGHILVTSRNQAWATQGQSLPVDVFLRQESIEHLSRRAPGLTAHEADRVATAVGDLPLAVEQAAAWLAETATPIEDYLRQLAEQTTDVLDLNQPADYPETVAATWNISIARLKDRSPASVRLLQLCAFLAPEPISSHLLYSKEMIDELRKVDPTLQESLLLGRVIREIARFALAKVDQVSNSIQVHRLVQAVIRSQLTQEEQRHARHVVHTVLAGARPDGDEPIDDPETWPRFGVIWPHLSASDVRNCTENEPRRLLIDRVRYLWKRGDFPAAQQLAEDLLGHWKPLLGEEDVQYLYLRCQLANVMRSQGRYVESRAINTELLEQQRRVLGAAHPHTYVTMSSLASDLAALGEYTLAVELAREAHDGFSQIFHESHRRTLSAANNLALALRMVGRYGDARSLDQDTYDRRMEVLGPDHPYTLASAGRLGRDLREVGRYEDSVSLLSRAYDAHKRILGKGFPGTLSCAKSLAVSLRRTGRLEDARRLTTATRAQYRTQYDAHTPDSLACDLNMAADLYAADEREAAREVAKEALTEYMKVPGEEHPYTQAALNNLGIFHWGCGDAVEAEAVFRQVLPRMSDVLGDRHPHTLFTEANFANVLADQGRLEEAWALEKRAMDTLRTVLGPQHPETLAVVSNCALTLGALGRTDEARRLREETLAELNRQGRQLGENNGIIQLTGHERRIYRDLEPLAV", "values": [{"measurement": "protein production", "value": "failed"}]}, {"sequence": "MTGCFLWQLYLPKLQTGSLKPEVPPAPVKMCPRHPELVPLAHPLPVLKEALEKVDGILRKAMLAPGLAAMSALVIHNDTVLWTGNFGRKNGSDPNSGTPNEYTMYRIASISKIFPVLMLYRLWEEGIVDSLDDPLERYASTFSINNPLGTAQGPGAQGPTGESEEMGSLPRPSPVTLRRMASQLSGLPRRLRGTSLLWRGSTQEALSLLKDDVLVADPGTRCHYSTLAFSLLAHVLAAHRAQGDYERWVSEQVLEPLGMSDTGFALTGTVRARLAAGFYGSGRSAPLYDLGWYRPSGQMYSTAADLARLAAALLGAGPRRLLRPDSLATLLAPLRACAHGYFASETGTPWEFHERRGYRVARKDGDLDGYAASLALVPPLRLGFVLLLAGPRPPTRDLVADALDTLLPALERALREAELAPAPPPRARPFAGFFTFANRTFYEVRAAGPRGELRLRQFGPRVEALVPAAFRSLALRHVRGRVFQLHVAREFPCALPLADAWLSLESQHGQLVRFYPLDRHGLAPGFDSCDSMDGWNTTCSAVHFLEDVWVVYNLQFL", "values": [{"measurement": "protein production", "value": "failed"}]}, {"sequence": "MNILKMKKTGIFLGGVLFGTVGVKILSSDCVKKTCTRATAGALKVKDSVLETTTKIQENVEDILAEAKEINEQEDLSTSKVNVVQDTLKCEQEVLKTETIKTVEDTNSNSIKCEEIKDNVIEEKNSTCTTE", "values": [{"measurement": "protein production", "value": "failed"}]}, {"sequence": "KQQKDGSWLMDALIPLNELKYKLGLTTIEGEESEGFQTLNGFLTWWLGRLPHAGELVDYEGWQFEVLNVKHHRIVQVKVSRETESETTTDTNDGDANP", "values": [{"measurement": "protein production", "value": "not failed"}]}]}
